Data reported in patent US20130177572A1.

How the values were obtained:
human PDGFRβ (human) = human PDGFRβ (human) (UniProt P09619); assay: solution equilibrium binding: 35S-Met labelled in vitro translated protein, human PDGFRβ titrated (0 to 20 nM), capture on protein A beads, scintillation counts
[1] = molecular target: human PDGFR-hIgG1-Fc chimeric fusion protein (human) (UniProt P09619); assay: SPR (Biacore T100), PDGFR-Fc captured by anti-hIgG1 Fc, 1:1 model
human PDGFR-hIgG1-Fc chimeric fusion protein (human), sequence (P09619 33-530 limits assumed, stated change not applied): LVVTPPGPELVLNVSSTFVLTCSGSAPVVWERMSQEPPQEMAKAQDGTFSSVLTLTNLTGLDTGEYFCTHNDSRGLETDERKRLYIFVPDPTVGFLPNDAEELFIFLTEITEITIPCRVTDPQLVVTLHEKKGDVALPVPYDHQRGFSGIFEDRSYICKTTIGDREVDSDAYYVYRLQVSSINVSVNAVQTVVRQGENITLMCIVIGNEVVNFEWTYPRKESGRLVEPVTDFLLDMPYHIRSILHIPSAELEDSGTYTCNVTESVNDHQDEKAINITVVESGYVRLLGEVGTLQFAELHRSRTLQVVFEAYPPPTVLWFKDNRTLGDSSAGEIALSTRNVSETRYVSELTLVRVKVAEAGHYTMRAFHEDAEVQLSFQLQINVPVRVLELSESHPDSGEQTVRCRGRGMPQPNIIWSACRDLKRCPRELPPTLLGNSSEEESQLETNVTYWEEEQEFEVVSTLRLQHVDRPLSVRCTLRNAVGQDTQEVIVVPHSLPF

human PDGFRβ (human), sequence (P09619 33-530 limits assumed): as the sequence (P09619 33-530 limits assumed, stated change not applied) above

B1: XB2202/A4 scFv (scFv, part only; not given: Linker, domain order and tag, V domains shown, not shown: another chain or arm of the molecule; small tags and cut ends)
VH: QVQLVQSGAEVKKPGSSVRVSCKASGGTFSRHAISWVRQAPGQGLEWIGGILPILKTPNYAQRFQGRVTINADESTSTVYMEMSSLRSEDTAVYYCATHGGDRSYWGQGTLVTVSS
VL: DVVMTQSPSSLSASVGDRVTITCQASQDISNWLNWYQQKPGKAPKLLIYEASNLETGVPSRFSGSGSGTDFTFTISSLQPEDIATYYCQQYNNVLRTFGQGTKVEIK
Q: For B1, which Kd (human PDGFRβ (human)) is on record?
A: 0.03 nM

Q: And the Kd [1]?
A: 2.18 nM

Q: What about the koff [1] of the same binder?
A: 0.00154 s⁻¹

Q: And the kon [1]?
A: 706000 M⁻¹ s⁻¹
